Source: the nanobody polyreactivity screen of Harvey et al. (2022)

Test: yeast display, Sf9 membrane polyspecificity reagent, FACS + sequencing; frameworks hold sequencing errors
How it was run: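 A nanobody's polyreactivity label depends on the gate it was sorted from. Yeast display cells were stained with 10% biotinylated, detergent-solubilized Sf9 membrane reagent for 1 hour at 4 °C, enriched on streptavidin microbeads and sorted by FACS. The low and high (top ~1%) gates were set on anti-HA fluorescence for expression and streptavidin fluorescence for reagent binding.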

QVQLVESGGGLVQAGGSLRLSCAASGSTFDYSGMGWDIQAPGKERELVATITRRGGNTYYADSVKGRITISRDNANNTDYLQMNSLKPEDTAVYNCNVTPVRGSPEYGNWGQGTQVTVSS
polyreactivity (PSR sort gate): high polyreactivity

QVQLVESGGGLVQAGGSLRLSCAASGSTFDYYALGWYRQAPGKETELVAAISRSGVRTYYADSVKGRFTISRDNAKNTVYLQMNSLKPEDTAVYYCAAQVIPKFDWGQGTQVTVSS
polyreactivity (PSR sort gate): high polyreactivity

QVQLVESGGGLVQAGGSLRLSCAASGSTFDYYAMGWYRQAPGKERELVAAISRSGGRTYYADSVKGRFTISRDNAKNTVYLQMNSLKPEDTAVYYCAADKPVIGTYSRYDYWGQGTQVTVSS
polyreactivity (PSR sort gate): high polyreactivity

QVQLVESGGGLVQAGGSLRLSCAASGSTFDYYAMGWYRQAPGKERELVAAISRTGGRTYYADSVKGRFTISRDNAKNTVFLQMNSLKPEDTAVYYCAARGGWVRRYGWRLDYWGQGTQVTVSS
polyreactivity (PSR sort gate): low polyreactivity

QVQLVESGGGLVQAGGSLRLSCAASGSTFDYYAMGWYRQAPGKERELVAAITSTGSTYYADSVKGRFTISRDNAKNTVYLQMNSLKPEDTAVYYCAADDIYKYYQYYAFPYYRYDYWGQGTQVTVSS
polyreactivity (PSR sort gate): low polyreactivity

QVQLVESGGGLVQAGGSLRLSCAASGSTFDYYDMGWYRQAPGKARELVAAISSGGDSTYYADSVKGRFTISRDNAKNTVYLQMNSLKPEDTAVYYCAAAVYYGQSVWYYYWGQGTQVTVSS
polyreactivity (PSR sort gate): high polyreactivity

QVQLVESGGGLVQAGGSLRLSCAASGSTFDYYGMGWYRQAPGKERELVAAITTSGGSTYYADSVKGRFTISRDNAKNTVYLQMNSLKPEDTAVYYCAAESYWYGTSPYYYLYEYDYWGQGTQVTVSS
polyreactivity (PSR sort gate): high polyreactivity

QVQLVESGGGLVQAGGSLRLSCAASGSTFDYYSMGWYRQAPGKERELVAAISYSGSRTYYADSVKGRFTISRDNAKNTVYLQMNSLKPEDTAVYYCAARRGYVKGKTYDYWGQGTQVTVSS
polyreactivity (PSR sort gate): high polyreactivity

QVQLVESGGGLVQAGGSLRLSCAASGSTFEDYVMGWYRQAPGKERELVAAITSGDNTKYADSVKGRFTISRDNAKNTVYLQMNSLKPEDTAVYYCNADFPDVRSEYDYWGQGTQVTVSS
polyreactivity (PSR sort gate): high polyreactivity

QVQLVESGGGLVQAGGSLRLSCAASGSTFEEYAMGWYRKAPGKERELVAGITWGGGSTYYADSVKGRFTISRDNAKNTVYLQMNSLKPEDTAVYYCVFAFEYYYWGQGTQVTVSS
polyreactivity (PSR sort gate): low polyreactivity

QVQLVESGGGLVQAGGSLRLSCAASGSTFEFNDMGWYIQAPGKERELVASIRHSDGSTYYADSVKGRFTISRDNAKNTVYLQMNSLKPEDTAVYYCNKAFQWSGGQVSYDYWGQATQVTVSS
polyreactivity (PSR sort gate): low polyreactivity

QVQLVESGGGLVQAGGSLRLSCAASGSTFEGYAMGWYRQAPGKEMELVAAISSSGGTTNYADSVKGRFTISRDNAKNTVYLQMNSLKPEDTAVYYCAARKYAKYFYHYDYWGQGTQVTVSS
polyreactivity (PSR sort gate): low polyreactivity

QVQLVESGGGLVQAGGSLRLSCAASGSTFENNAMGWYRQAPGKERELVASSTNYADSVKGRFTISRDNAKNTVYLQMNSLKPEDTAVYYCNLDTNSSYEFNSWGQGTQVTVSS
polyreactivity (PSR sort gate): low polyreactivity

QVQLVESGGGLVQAGGSLRLSCAASGSTFENNVMAWYRQAPGKERELVATITWGDGSTSYADSVKGRFTISRDNAKNTVYLQMNSLKPEDTAVYYCAADSAENVYRGYYWGQGTQVTVSS
polyreactivity (PSR sort gate): low polyreactivity

QVQLVESGGGLVQAGGSLRLSCAASGSTFESNAMGWYRQAPGKERELVASISGSGGSTFYADSVKGRFTISRDNAKNTVYLQMNSLKPEDTAVYYCAAYKEPYYEEYGYWGQGTQVTVSS
polyreactivity (PSR sort gate): low polyreactivity

QVQLVESGGGLVQAGGSLRLSCAASGSTFESNFMGWYRQAPGKEWELVAAITWTGGSTYYADSVKGRFTISRDNAKNNVYLQMNSLKPVDTAVYYCATYDPGPLLGSDYWGHGTQVTVSS
polyreactivity (PSR sort gate): low polyreactivity

QVQLVESGGGLVQAGGSLRLSCAASGSTFESYAMGWYRQAPGKERELVAAISRRGGRTYYADSVKGRFTISRDNAKNTVYLQMYSLKPEDTAVYYCATDSSYYGSDDYWGQGTQVNVSS
polyreactivity (PSR sort gate): high polyreactivity

QVQLVESGGGLVQAGGSLRLSCAASGSTFETNAMGWYRQAPGKERELVAAISVSGGDTYYADSVKGRFTISRDNAKNTVYLQMNSLKPEDTAVYYCAAAERGYIFPDRMRYDYWGQGTQVTVSS
polyreactivity (PSR sort gate): low polyreactivity

QVQLVESGGGLVQAGGSLRLSCAASGSTFETNGMGWYRQAPGKERELVAAITSGGSTYYADSVKGRFTISRDNAKNTVYLQMNSLKPEDTAVYYCAAVDGGWAYDPYDYWGQGTQVTVSS
polyreactivity (PSR sort gate): low polyreactivity

QVQLVESGGGLVQAGGSLRLSCAASGSTFEVNAMGWYRQAPGKERELVAAISSSAGDTYYADSVKGRFTISRDNAKNTVYLQMNSLKPEDTAVYYCAAKGFPRSGYPYQAQHMYYWGQGTQVTVSS
polyreactivity (PSR sort gate): low polyreactivity

QVQLVESGGGLVQAGGSLRLSCAASGSTFEYNAMGWYRQAPGKERELVASSTNYADSVKGRFTISRDNAKNTVYLQMNSLKPEDTAVYYFAREQGVNRNHDYWGQGTQVTVSS
polyreactivity (PSR sort gate): low polyreactivity

QVQLVESGGGLVQAGGSLRLSCAASGSTFEYNAMGWYRQAPGKERELVASSTNYADSVKGRFTISRDNAKNTVYLQMNSLKPEVTAVYYCAAYQDYVYSESLFSVSARMYYWGQGTQVTVSS
polyreactivity (PSR sort gate): low polyreactivity

QVQLVESGGGLVQAGGSLRLSCAASGSTFEYYAMGWYRQAPGKERELLATISIDGRTNYADSVKGRFTISRDNAKNTVYLQLYSVKPEDTAVYYCGARPYWRHRYDYWGQGTQVTVSS
polyreactivity (PSR sort gate): low polyreactivity

QVQLVESGGGLVQAGGSLRLSCAASGSTFEYYAMGWYRQAPGKERELVAAITTSGGITYYADSVKGRFTISRDNAKNTVYLQMNSLKPEDTAVYYCNADAVPLPTLVTYLYDYWGQGTQVTVSS
polyreactivity (PSR sort gate): low polyreactivity

QVQLVESGGGLVQAGGSLRLSCAASGSTFEYYAMGWYRQAPGKERELVATISIDGRTNYADSVKGRFTISRDNAKNTVYLQMNSLKPEDTAVYYCAADTNWSPGYIMYYRSDYWGQGTQVTVSS
polyreactivity (PSR sort gate): low polyreactivity

QVQLVESGGGLVQAGGSLRLSCAASGSTFEYYAMGWYRQAPGKERELVAVITNGGSTNYADSVKGRFTISRDNAKNTVYLQKNSLKPEDTAVYYCNAERRVFYYFDYDFWGLGTQVTVSS
polyreactivity (PSR sort gate): low polyreactivity

QVQLVESGGGLVQAGGSLRLSCAASGSTFFDYAMGWYRQAPGKVRELVAVISDGGTTTYADSVKGRFTISRDNAKNTVYLQMNSLKPEDTAVYYCAAENQDGLLVILGGYGYWGQGTQVTVSS
polyreactivity (PSR sort gate): low polyreactivity

QVQLVESGGGLVQAGGSLRLSCAASGSTFFFNAMGWYRQAPGKERELVAGISSSGGSTHYADSVKGRFTISRDNAKNTVYLQMNSLKPEDTAVYYCNAQQYLPSEGDYWGQGTQVTVSS
polyreactivity (PSR sort gate): low polyreactivity

QVQLVESGGGLVQAGGSLRLSCAASGSTFFGNTMGWYRQAPGKERELVATITRRGGSTYYADSVKGRFTMSRDNAKNTVYLQMNSLKPEDTAVYYCANRGPYTKYDYWGQGTQVTVSS
polyreactivity (PSR sort gate): low polyreactivity

QVQLVESGGGLVQAGGSLRLSCAASGSTFFGYDMGWYRQAPGTERELVATINSGGSTYYADSVKGRFTISRDNAKYTVYLQMNSLKPEDTAVYYCAARPSYLYPFDRTGEYDYWGQGTQVTVSS
polyreactivity (PSR sort gate): high polyreactivity

QVQLVESGGGLVQAGGSLRLSCAASGSTFFHYAMGWYRQAPGKERELVAAISTGGTTYYADSVKGRFTISRDNAKNTVYLQMNSLKPEDSAVYYCAAEAYGLSGLYYYWGQCTQVTVSS
polyreactivity (PSR sort gate): high polyreactivity

QVQLVESGGGLVQAGGSLRLSCAASGSTFFINAMGWYRQGPGKERELVASISYSGGSTYYAHSVKGRFTISRDNAKNTVYLQLNSLKPEDTAVYYCNADVRVFLHYYKYNYWGQGTQVTVSS
polyreactivity (PSR sort gate): low polyreactivity

QVQLVESGGGLVQAGGSLRLSCAASGSTFFLNAMGWYRQAPGKERELVAAISYSDSGTNYADSVKGRFTISRDNAKNTVYLQMNSLKPEDTAVYYCATAVRPWYVTSGNYWGQGTQVTVSS
polyreactivity (PSR sort gate): low polyreactivity

QVQLVESGGGLVQAGGSLRLSCAASGSTFFLYAMGWYRQAPGKERELVAAISSGGSTNYADSVKGRFTISRDNAKNTVYLQMNSLKPEDTAVYYCAADAVRSHDYWGQGTQVTVSS
polyreactivity (PSR sort gate): low polyreactivity

QVQLVESGGGLVQAGGSLRLSCAASGSTFFLYAMGWYRQAPGKERELVAAITWRSGRTYYADSVKGRFTISRDNAKNTVYLQMNSLKPEDTAVYYCAADYVLGEVVRYDYWGQGTQVTVSS
polyreactivity (PSR sort gate): high polyreactivity

QVQLVESGGGLVQAGGSLRLSCAASGSTFFPYAMGWYRQAPGKERELVAAITSGGRTKYADSVKGRFTISRDNAMNTVYLQMNSLKPEDTAVYYCAARGLIKEYGGPYRRFGYWGQGTQVTVSS
polyreactivity (PSR sort gate): high polyreactivity

QVQLVESGGGLVQAGGSLRLSCAASGSTFFPYAMGWYRQAPGKERELVAGISSDGGTSYADSVKGRFTISRDNAKNTVYLQMNSLKPEDTAVYYCAALQADRGGWYDYWGQGTQVTVSS
polyreactivity (PSR sort gate): low polyreactivity

QVQLVESGGGLVQAGGSLRLSCAASGSTFFPYAMGWYRQAPGKERELVATINYSGGGTYYADSVKGRFTISRDNAKNTVYLQMNSLKPEDTAVYYCAKTLARFDRGYYWGQGTQVTVSS
polyreactivity (PSR sort gate): low polyreactivity

QVQLVESGGGLVQAGGSLRLSCAASGSTFFSYAMGWYRQAPGKEREFVAAISWIDDGTYYADSVKGRFTISRDNAKNTVYLQMNSLKPEDTAVYYCAADIGAYRTWDYEYWGQGTQVTVSS
polyreactivity (PSR sort gate): low polyreactivity

QVQLVESGGGLVQAGGSLRLSCAASGSTFFTNAMAWYRQSPGKERELVASISFSGGRTYYADSVKGRFTISRDNAKNTVYLQMNSLKPEDTAVYYCAARRYRYTRYDYWGQGTQVTVSS
polyreactivity (PSR sort gate): high polyreactivity

QVQLVESGGGLVQAGGSLRLSCAASGSTFFTNAMGWYRQAPGKERELVAAITINDGSTFYADSVKGRFTITRDNAKNTVYLQMNSLKPEDTAVYYCNADGVDLYDYWGQGTQVTVSS
polyreactivity (PSR sort gate): low polyreactivity

QVQLVESGGGLVQAGGSLRLSCAASGSTFFTNVMGWYRQAPGKERELVAVIRWRGSDTYYADSVKGRFTISRDNAKNTVYLQMNSLKPEDTAVYYSNAKESFYPTTGEQGYSYDYWGQGTQVTVSS
polyreactivity (PSR sort gate): low polyreactivity

QVQLVESGGGLVQAGGSLRLSCAASGSTFFTYTMGWYRQAPGKERELVARITSSGGSTYYADSVKGRFTISRDNAKNTVYLQMNSLKPEDTAVYYCNARYYSHPTYDYWGQGTQVTVSS
polyreactivity (PSR sort gate): high polyreactivity
